B1: 2-O sulfatase: recombinant F. heparinum 2-O sulfatase expressed in E. coli; experiments used the truncated enzyme with the histidine tag cleaved (protein, listed as Flavobacterium heparinum)
chain: MKMYKSKGWLIAMLILAGFGDAGAQTSKVAASRPNIIIIMTDQQTADAMSNAGNKDLHTPAMDVLAANGTRFTRAYCAQPLCTPSRSAIFSGKMPHETGFTGNTPEKDGQWPDSVLMMGKIFKAGGYKTGYVGKWHLPVPVTKVAQHGFETIENTGMGDYTDAVTPSQCANFNKKNKDNPFLLVASFLNPHDICEWARGDNLKMDVLDAAPDTAFCPKLPANWPIPAFEPAIVREQQKVNPRTYPSVGWNESQWRKYRWAYNRLVEKVDNYMAMVLGSLKKYGIEDNTIIIFTSDHGDGYAAHEWNQKQILYEEAARIPFIISKIGQWKARTDDQLVCNGIDIIPTICGFAGIAKPVGLKGLDLSKRIANPSVKLRDTLVIETDFADNELLLGIKGRAVITKDFKYIVYDKGEIREQLFDLEKDAGEMDNLAVKPAYKKKLNEMRAYLKLWCKQHQDSFYALKK

Experiments:
Δ 4,5 glycuronidase = Δ 4,5 glycuronidase activity (loss of UV absorption at 232 nm); type: biochemical, F. heparinum; conditions: 2 mM substrate, 250 nM Δ 4,5 enzyme alone, 30° C.
Experimental: The substrate-product relationship between the two enzymes was examined by directly measuring Δ 4,5 glycuronidase activity either before or following the addition of recombinant 2-O sulfatase. Reactions were carried out at 30° C. and included 50 mM MES, pH 6.5, 100 mM NaCl, and 2 mM ΔU2SHNS in a 100 μL reaction volume. In these experiments, 250 nM Δ 4,5 glycuronidase and 25 nM 2-O ΔN^1-24 were sequentially added as follows: Δ 4,5 alone, Δ 4,5 followed by 2-O sulfatase, or 2-O sulfatase followed by Δ 4,5.
We hypothesized that, an obligatory substrate-product relationship between the 2-O sulfatase and the Δ 4,5 glycuronidase may exist. We examined a possible kinetic relationship between these two enzymes by looking at their sequential action (FIG. 7). In this experiment, Δ 4,5 glycuronidase activity was measured directly either […] or following the addition of the recombinant 2-O sulfatase using the disaccharide substrate ΔU2SHNS. […] In the reciprocal experiment (i.e., whereby the 2-O sulfatase was added second), we observed an initial lag in Δ 4,5 activity. This lag was followed by a linear Δ 4,5 activity, albeit at a slower rate than in the case where the 2-O sulfatase was added first. The observed delay in activity was presumably due to the prerequisite 2-O desulfation of the substrate which must occur prior to being acted on by the glycuronidase.

[1] = biochemical reaction conditions (pH, ionic strength, temperature) for recombinant 2-O sulfatase; conditions: for activity at outlying pH values of 5 and 8: pH 5.0 and 8.0
Experimental: FIG. 6 provides the in vitro biochemical reaction conditions for the recombinant 2-O sulfatase. Panel (A) illustrates the effect of pH. Sulfatase catalytic efficiency (kcat/Km) was measured as a function of varying pH from 5 to 8 using two overlapping buffers: 50 mM MES (solid circles) and 50 mM MOPS (open circles). Inset: Relative effect of three different assay buffers (each at pH 6.5) on optimal enzyme activity. 1.50 mM MES; 2.50 mM imidazole; 3.50 mM sodium phosphate. Panel (B) illustrates the effect of ionic strength. Shown here is % activity normalized to 50 mM NaCl. Panel (C) illustrates the effect of reaction temperature. Data is normalized to 30° C. activity (100%). The unsaturated disaccharide ΔU2SHNS was used in all three experiments.
For pilot experiments measuring the relative effect of ionic strength on 2-O sulfatase activity, the NaCl concentration was varied from 0.05 to 1 M in 50 mM MES buffer (pH 6.5) that included 500 μM of the disulfated disaccharide ΔU2SHNS,6S and 50 nM enzyme. The effect of pH on sulfatase activity was assessed as a function of catalytic efficiency by measuring kinetic parameters in the following two overlapping pH buffer systems ranging from 5.0 to 8.0: 50 mM MES at pH 5.0, 5.5, 6.5, and 7.0; 50 mM MOPS at pH 6.5, 7.0, 7.5 and 8.0. Assays included 25 nM enzyme, 50 mM NaCl and varying concentrations of the disulfated disaccharide substrate ΔU2SHNS. Km and kcat values were extrapolated from Vo vs. [S] curves fit to the Michaelis-Menten equation by a non-linear least squares regression and the relative kcat/Km ratios plotted as a function of buffer pH. Based on this profile, relative enzyme activity was also measured in four different buffers (MES, imidazole, ADA, and sodium phosphate) each present as a 50 mM concentration at pH 6.5. Relative activities were measured at a single saturating substrate concentration (4 mM) using ΔU2SHNS.
These parameters included pH, temperature, ionic strength, and possible divalent metal ion dependency.
37° C. was the default temperature at which all of the preliminary biochemical experiments were conducted. We measured both relative enzyme activity and stability as a function of varying reaction temperature (FIG. 6, Paenl (C)). The 2-O sulfatase was active over a fairly broad temperature range (25° C. to 37° C.), with optimal activity occurring at 30° C. Enzyme activity was compromised at 42° C. Enzyme stability at this temperature was likewise affected as assessed in pre-incubation experiments conducted at varying temperatures (30° C.→42° C.) prior to measuring 2-O sulfatase activity at 30° C.

[2] = −85° C., 10% glycerol

| Molecule | glycuronidase-mediated hydrolysis (Δ 4,5 glycuronidase) | pH activity range ([1]; 50 mM MES / MOPS, pH 5 to 8) | pH optimum of activity (catalytic efficiency) ([1]; 50 mM MES / MOPS, pH 5 to 8) | enzyme activity at 42° C. ([1]; 42° C.) | NaCl concentration of optimal activity ([1]; NaCl titration) | activity at outlying pH values of 5 and 8 [1] | activity at outlying pH values of 5 and 8 ([1]; listed as flavobacterial sulfatase) | temperature of optimal activity ([1]; varying reaction temperature) [°C] | activity after long-term storage, freezing and thawing [2] |
| --- | --- | --- | --- | --- | --- | --- | --- | --- | --- |
| O=C(O)C1=C[C@H](O)[C@@H](OS(=O)(=O)O)[C@H](O[C@H]2[C@H](O)[C@@H](NS(=O)(=O)O)C(O)O[C@@H]2CO)O1 (stereo partly drawn) [ΔU2SHNS] | completely refractory |  |  |  |  |  |  |  |  |
| B1 |  | 6.0-7.0 | 6.5 | compromised | approximately 50 mM | essentially no activity | essentially inactive | 30 | without any subsequent loss of activity |

Reference: patent publication US7429474B2, “2-O sulfatase compositions and methods of analyzing therewith” (Massachusetts Institute of Technology, priority 2003, dated 2008)
